Data from the RNAGym collection of RNA variant scans (doi:10.1093/molbev/msab373).

B1: Azoarcus group I ribozyme (parent)
chain: GUGCCUUGCGCCGGGAAACCACGCAAGGGAUGGUGUCAAAUUCGGCGAAACCUAAGCGCCCGCCCGGGCGUAUGGCAACGCCGAGCCAAGCUUCGGCGCCUGCGCCGAUGAAGGUGUAGAGACUAGACGGCACCCACCUAAGGCAAACGCUAUGGUGAAGGCAUAGUCCAGGGAGUGGCGAAAGUCACACAAACCGG

Variants of: B1
Assay: reverse-splicing fitness (ratio to wild type); higher = more active; in vitro selection; Mg2+ level not given
Method in brief: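 An in vitro group I ribozyme library with randomized positions was T7-transcribed and gel-purified. In triplicate, 10 pmol RNA in EPPS pH 7.5 was reacted with 50 pmoles of a 30-nt RNA substrate for 1 h at 37 °C across several added MgCl2 levels (1–48 mM), then stopped with EDTA. Products were reverse transcribed from a substrate-complementary primer, PCR-amplified and sequenced (HiSeq 4000). Fitness is a variant's read proportion after selection over that before, normalised to wild type.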

Question: Which reverse-splicing fitness does the source give for GUGCCUUGCGCCGGGAAACCACGCAAGGGAUGGUGUCAAAUUCGGCGAAACCUAAGCGCCCGCCCGGGCGUAUGGCAACGCCGAGCCAAGCUUCGGCGCCUGCGCCGAUGCAGGUGUAGCGACUAGACGGCACCCACCUAAGGCUAACGAUAUGGUGAAGGCAUAGUCAAGGGAGGGGCGAAAGUCACACAAACCGG [A111C A120C A145U C150A C169A U176G] here?
Answer: 0.0061

Question: For GUGCCUUGCGCCGGGAAACCACGCAAGGGAUGGUGUCAAAUUCGGCGAAACCUAAGCGCCCGCCCGGGCGUAUGGCAACGCCGAGCCAAGCUUCGGCGCCUGCGCCGAUGCAGGUGUAGCGACUAGACGGCACCCACCUAAGGCUAACGAUAUGGUGAAGGCAUAGUCGAGGGAGUGGCGAAAGUCACACAAACCGG [A111C A120C A145U C150A C169G], which reverse-splicing fitness is on record?
Answer: 0.00628

Question: For GUGCCUUGCGCCGGGAAACCACGCAAGGGAUGGUGUCAAAUUCGGCGAAACCUAAGCGCCCGCCCGGGCGUAUGGCAACGCCGAGCCAAGCUUCGGCGCCUGCGCCGAUGCAGGUGUAGCGACUAGACGGCACCCACCUAAGGCUAACGAUAUGGUGAAGGCAUAGUCGAGGGAGAGGCGAAAGUCACACAAACCGG [A111C A120C A145U C150A C169G U176A], which reverse-splicing fitness is on record?
Answer: 0.0127

Question: Which reverse-splicing fitness does the source give for GUGCCUUGCGCCGGGAAACCACGCAAGGGAUGGUGUCAAAUUCGGCGAAACCUAAGCGCCCGCCCGGGCGUAUGGCAACGCCGAGCCAAGCUUCGGCGCCUGCGCCGAUGCAGGUGUAGCGACUAGACGGCACCCACCUAAGGCUAACGAUAUGGUGAAGGCAUAGUCGAGGGAGCGGCGAAAGUCACACAAACCGG [A111C A120C A145U C150A C169G U176C] here?
Answer: 0.0146

Question: With GUGCCUUGCGCCGGGAAACCACGCAAGGGAUGGUGUCAAAUUCGGCGAAACCUAAGCGCCCGCCCGGGCGUAUGGCAACGCCGAGCCAAGCUUCGGCGCCUGCGCCGAUGCAGGUGUAGCGACUAGACGGCACCCACCUAAGGCUAACGAUAUGGUGAAGGCAUAGUCGAGGGAGGGGCGAAAGUCACACAAACCGG [A111C A120C A145U C150A C169G U176G] as the variant, how does the reverse-splicing fitness read?
Answer: 0.00651

Question: For GUGCCUUGCGCCGGGAAACCACGCAAGGGAUGGUGUCAAAUUCGGCGAAACCUAAGCGCCCGCCCGGGCGUAUGGCAACGCCGAGCCAAGCUUCGGCGCCUGCGCCGAUGCAGGUGUAGCGACUAGACGGCACCCACCUAAGGCUAACGAUAUGGUGAAGGCAUAGUCUAGGGAGUGGCGAAAGUCACACAAACCGG [A111C A120C A145U C150A C169U], which reverse-splicing fitness is on record?
Answer: 0.024

Question: With GUGCCUUGCGCCGGGAAACCACGCAAGGGAUGGUGUCAAAUUCGGCGAAACCUAAGCGCCCGCCCGGGCGUAUGGCAACGCCGAGCCAAGCUUCGGCGCCUGCGCCGAUGCAGGUGUAGCGACUAGACGGCACCCACCUAAGGCUAACGAUAUGGUGAAGGCAUAGUCUAGGGAGAGGCGAAAGUCACACAAACCGG [A111C A120C A145U C150A C169U U176A] as the variant, how does the reverse-splicing fitness read?
Answer: 0.0195

Question: Which reverse-splicing fitness does the source give for GUGCCUUGCGCCGGGAAACCACGCAAGGGAUGGUGUCAAAUUCGGCGAAACCUAAGCGCCCGCCCGGGCGUAUGGCAACGCCGAGCCAAGCUUCGGCGCCUGCGCCGAUGCAGGUGUAGCGACUAGACGGCACCCACCUAAGGCUAACGAUAUGGUGAAGGCAUAGUCUAGGGAGCGGCGAAAGUCACACAAACCGG [A111C A120C A145U C150A C169U U176C] here?
Answer: 0.0144

Question: With GUGCCUUGCGCCGGGAAACCACGCAAGGGAUGGUGUCAAAUUCGGCGAAACCUAAGCGCCCGCCCGGGCGUAUGGCAACGCCGAGCCAAGCUUCGGCGCCUGCGCCGAUGCAGGUGUAGCGACUAGACGGCACCCACCUAAGGCUAACGAUAUGGUGAAGGCAUAGUCUAGGGAGGGGCGAAAGUCACACAAACCGG [A111C A120C A145U C150A C169U U176G] as the variant, how does the reverse-splicing fitness read?
Answer: 0.00632

Question: Which reverse-splicing fitness does the source give for GUGCCUUGCGCCGGGAAACCACGCAAGGGAUGGUGUCAAAUUCGGCGAAACCUAAGCGCCCGCCCGGGCGUAUGGCAACGCCGAGCCAAGCUUCGGCGCCUGCGCCGAUGCAGGUGUAGCGACUAGACGGCACCCACCUAAGGCUAACGAUAUGGUGAAGGCAUAGUCCAGGGAGAGGCGAAAGUCACACAAACCGG [A111C A120C A145U C150A U176A] here?
Answer: 0.0359

Question: For GUGCCUUGCGCCGGGAAACCACGCAAGGGAUGGUGUCAAAUUCGGCGAAACCUAAGCGCCCGCCCGGGCGUAUGGCAACGCCGAGCCAAGCUUCGGCGCCUGCGCCGAUGCAGGUGUAGCGACUAGACGGCACCCACCUAAGGCUAACGAUAUGGUGAAGGCAUAGUCCAGGGAGCGGCGAAAGUCACACAAACCGG [A111C A120C A145U C150A U176C], which reverse-splicing fitness is on record?
Answer: 0.0526

Question: Which reverse-splicing fitness does the source give for GUGCCUUGCGCCGGGAAACCACGCAAGGGAUGGUGUCAAAUUCGGCGAAACCUAAGCGCCCGCCCGGGCGUAUGGCAACGCCGAGCCAAGCUUCGGCGCCUGCGCCGAUGCAGGUGUAGCGACUAGACGGCACCCACCUAAGGCUAACGAUAUGGUGAAGGCAUAGUCCAGGGAGGGGCGAAAGUCACACAAACCGG [A111C A120C A145U C150A U176G] here?
Answer: 0.00986

Question: For GUGCCUUGCGCCGGGAAACCACGCAAGGGAUGGUGUCAAAUUCGGCGAAACCUAAGCGCCCGCCCGGGCGUAUGGCAACGCCGAGCCAAGCUUCGGCGCCUGCGCCGAUGCAGGUGUAGCGACUAGACGGCACCCACCUAAGGCUAACGGUAUGGUGAAGGCAUAGUCCAGGGAGUGGCGAAAGUCACACAAACCGG [A111C A120C A145U C150G], which reverse-splicing fitness is on record?
Answer: 0.0621

Question: With GUGCCUUGCGCCGGGAAACCACGCAAGGGAUGGUGUCAAAUUCGGCGAAACCUAAGCGCCCGCCCGGGCGUAUGGCAACGCCGAGCCAAGCUUCGGCGCCUGCGCCGAUGCAGGUGUAGCGACUAGACGGCACCCACCUAAGGCUAACGGUAUGGUGAAGGCAUAGUCAAGGGAGUGGCGAAAGUCACACAAACCGG [A111C A120C A145U C150G C169A] as the variant, how does the reverse-splicing fitness read?
Answer: 0.00797

Question: With GUGCCUUGCGCCGGGAAACCACGCAAGGGAUGGUGUCAAAUUCGGCGAAACCUAAGCGCCCGCCCGGGCGUAUGGCAACGCCGAGCCAAGCUUCGGCGCCUGCGCCGAUGCAGGUGUAGCGACUAGACGGCACCCACCUAAGGCUAACGGUAUGGUGAAGGCAUAGUCAAGGGAGAGGCGAAAGUCACACAAACCGG [A111C A120C A145U C150G C169A U176A] as the variant, how does the reverse-splicing fitness read?
Answer: 0.0107
